Biological target: GST-HAUSP (human, UniProt Q93009 1-1102)
Test: pull-down

Sequence of GST-HAUSP (Q93009 whole entry): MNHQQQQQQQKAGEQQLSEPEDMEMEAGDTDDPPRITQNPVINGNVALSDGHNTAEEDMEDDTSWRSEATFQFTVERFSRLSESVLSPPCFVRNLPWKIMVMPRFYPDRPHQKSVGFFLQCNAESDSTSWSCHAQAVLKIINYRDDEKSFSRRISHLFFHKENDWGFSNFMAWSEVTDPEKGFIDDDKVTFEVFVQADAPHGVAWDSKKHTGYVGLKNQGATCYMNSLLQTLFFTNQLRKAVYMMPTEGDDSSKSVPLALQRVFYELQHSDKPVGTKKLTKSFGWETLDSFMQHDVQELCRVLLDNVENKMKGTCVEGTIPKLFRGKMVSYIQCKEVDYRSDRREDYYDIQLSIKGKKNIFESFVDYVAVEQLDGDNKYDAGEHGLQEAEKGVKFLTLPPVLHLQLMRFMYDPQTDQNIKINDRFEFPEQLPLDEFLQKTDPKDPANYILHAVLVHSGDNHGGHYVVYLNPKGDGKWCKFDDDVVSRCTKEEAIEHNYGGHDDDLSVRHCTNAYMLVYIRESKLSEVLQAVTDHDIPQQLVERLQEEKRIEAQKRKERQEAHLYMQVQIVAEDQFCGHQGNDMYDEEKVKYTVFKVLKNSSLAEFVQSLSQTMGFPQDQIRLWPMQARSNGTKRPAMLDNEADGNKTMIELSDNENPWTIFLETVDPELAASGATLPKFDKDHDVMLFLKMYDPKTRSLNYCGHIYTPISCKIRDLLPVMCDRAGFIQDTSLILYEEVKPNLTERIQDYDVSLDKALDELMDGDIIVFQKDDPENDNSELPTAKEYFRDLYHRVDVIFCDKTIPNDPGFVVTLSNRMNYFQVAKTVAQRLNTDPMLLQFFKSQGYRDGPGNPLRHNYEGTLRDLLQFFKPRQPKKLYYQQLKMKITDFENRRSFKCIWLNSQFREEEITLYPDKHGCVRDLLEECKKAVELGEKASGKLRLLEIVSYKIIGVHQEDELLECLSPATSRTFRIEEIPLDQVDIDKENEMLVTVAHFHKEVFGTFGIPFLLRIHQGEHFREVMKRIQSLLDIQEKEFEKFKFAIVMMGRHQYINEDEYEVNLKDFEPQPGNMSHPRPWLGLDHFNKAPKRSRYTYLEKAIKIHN

B1: Myc/His-Rb (Rb in pcDNA3.1-Myc/His B(-)) (natural protein, human, UniProt P06400 1-928, looked up)
chain: MPPKTPRKTAATAAAAAAEPPAPPPPPPPEEDPEQDSGPEDLPLVRLEFEETEEPDFTALCQKLKIPDHVRERAWLTWEKVSSVDGVLGGYIQKKKELWGICIFIAAVDLDEMSFTFTELQKNIEISVHKFFNLLKEIDTSTKVDNAMSRLLKKYDVLFALFSKLERTCELIYLTQPSSSISTEINSALVLKVSWITFLLAKGEVLQMEDDLVISFQLMLCVLDYFIKLSPPMLLKEPYKTAVIPINGSPRTPRRGQNRSARIAKQLENDTRIIEVLCKEHECNIDEVKNVYFKNFIPFMNSLGLVTSNGLPEVENLSKRYEEIYLKNKDLDARLFLDHDKTLQTDSIDSFETQRTPRKSNLDEEVNVIPPHTPVRTVMNTIQQLMMILNSASDQPSENLISYFNNCTVNPKESILKRVKDIGYIFKEKFAKAVGQGCVEIGSQRYKLGVRLYYRVMESMLKSEEERLSIQNFSKLLNDNIFHMSLLACALEVVMATYSRSTSQNLDSGTDLSFPWILNVLNLKAFDFYKVIESFIKAEGNLTREMIKHLERCEHRIMESLAWLSDSPLFDLIKQSKDREGPTDHLESACPLNLPLQNNHTAADMYLSPVRSPKKKGSTTRVNSTANAETQATSAFQTQKPLKSTSLSLFYKKVYRLAYLRLNTLCERLLSEHPELEHIIWTLFQHTLQNEYELMRDRHLDQIMMCSMYGICKVKNIDLKFKIIVTAYKDLPHAVQETFKRVLIKEEEYDSIIVFYNSVFMQRLKTNILQYASTRPPTLSPIPHIPRSPYKFPSSPLRIPGGNIYISPLKSPYKISEGLPTPTKMTPRSRILVSIGESFGTSEKFQKINQMVCNSDRVLKRSAEGSNPPKPLKKLRFDIEGSDEADGSKHLPGESKFQQKLAEMTSTRTRMQKQKMNDSMDTSNKEEK
- binding result: binds

From paper PMC4149788 (The Febs Journal, 2014)
